Experimental data taken from the Human Domainome abundance scans (Beltran et al. 2025).
± gives the uncertainty stated by the source.

B1: Zinc finger homeobox protein 4, residues 2562 to 2617; numbered along this chain, Q86UP3 (parent)
chain: RLRTTITPEQLEILYEKYLLDSNPTRKMLDHIAREVGLKKRVVQVWFQNTRARERK
B2: Nucleolar transcription factor 1, residues 408 to 469; numbered along this chain, P17480 (parent)
chain: KRPVSAMFIFSEEKRRQLQEERPELSESELTRLLARMWNDLSEKKKAKYKAREAALKAQSER

Variants of: B1
Test: abundance fitness (aPCA) (normalised: wild type 0, dead -1); higher = more abundant; growth selection in yeast, the domain comes from the species named
Settings: Homo sapiens

Abundance fitness: each site, then its substitutions
T5: A -0.398 ± 0.22; E 0.141 ± 0.15; S -0.068 ± 0.053; K -0.332 ± 0.31; F -0.312 ± 0.13; D 0.068 ± 0.23; L -0.298 ± 0.15; M -0.241 ± 0.29; G -0.132 ± 0.097; Q 0.085 ± 0.13; W -0.397 ± 0.16; N 0.265 ± 0.19; I 0.057 ± 0.17; V 0.025 ± 0.084; P -0.032 ± 0.25; R -0.34 ± 0.076; Y -0.252 ± 0.23
T7: W -0.708 ± 0.24; E 0.259 ± 0.14; M -0.321 ± 0.14; I -0.756 ± 0.43; R -0.449 ± 0.07; N -0.238 ± 0.42; G -0.155 ± 0.066; A 0.208 ± 0.12; C -0.258 ± 0.3; L -0.206 ± 0.12; S -0.111 ± 0.13; Q -0.295 ± 0.082; P -0.165 ± 0.2; K -0.55 ± 0.26; V -0.196 ± 0.11; Y -0.436 ± 0.09
K17: A -0.289 ± 0.2
I6: V -0.248 ± 0.081; Q -0.761 ± 0.14; N -0.708 ± 0.32; S -0.652 ± 0.06; T -0.584 ± 0.19; L -0.196 ± 0.07; M 0.144 ± 0.14; A -0.266 ± 0.099; D -0.759 ± 0.13; W -0.465 ± 0.072; P -0.056 ± 0.074; C -0.565 ± 0.1; H -0.202 ± 0.29; Y 0.06 ± 0.089; E -0.477 ± 0.14; R -0.983 ± 0.076; G -0.264 ± 0.049; K -0.852 ± 0.37
Y15: A -0.105 ± 0.068; D -0.02 ± 0.12; L 0.054 ± 0.059; V -0.206 ± 0.071; I -0.224 ± 0.093; E 0.301 ± 0.071; H 0.085 ± 0.1; P -0.781 ± 0.073; R 0.161 ± 0.044; K 0.1 ± 0.05; W 0.048 ± 0.061; Q 0.092 ± 0.068; G 0.009 ± 0.057; C -0.063 ± 0.069; N 0.075 ± 0.094; F -0.193 ± 0.13; T 0.067 ± 0.086
Q10: S -0.603 ± 0.12; I -0.086 ± 0.22; Y -0.856 ± 0.32; F -0.941 ± 0.24; N -0.651 ± 0.35; D 0.18 ± 0.12; M -0.326 ± 0.059; C -0.847 ± 0.2; G -0.695 ± 0.089; E -0.641 ± 0.13; V -0.283 ± 0.058; K -0.524 ± 0.11; W -0.695 ± 0.068; H -0.466 ± 0.071; T -0.587 ± 0.15; P -0.869 ± 0.15
L11: R -0.043 ± 0.052; I -0.037 ± 0.16; K -0.05 ± 0.09; W -0.203 ± 0.07; D 0.108 ± 0.064; H -0.01 ± 0.11; N -0.189 ± 0.11; Q 0.017 ± 0.094; G -0.017 ± 0.066; V 0.123 ± 0.061; P -1.05 ± 0.21; Y -0.159 ± 0.15; C -0.85 ± 0.14; E 0.092 ± 0.12; M -0.062 ± 0.089; S -0.082 ± 0.074; A -0.059 ± 0.053; T 0.215 ± 0.12
P8: H -0.422 ± 0.42; E 0.197 ± 0.12; S -0.413 ± 0.15; I 0.043 ± 0.22; R -0.254 ± 0.091; M -0.329 ± 0.2; L 0.167 ± 0.068; A 0.076 ± 0.065; C -0.54 ± 0.25; V 0.168 ± 0.099; G -0.504 ± 0.11; T -0.452 ± 0.13; D -0.107 ± 0.075; W -0.177 ± 0.11; Y -0.643 ± 0.38; Q -0.232 ± 0.19; K -0.272 ± 0.085; F -0.038 ± 0.17
E9: Y -0.297 ± 0.055; H -0.257 ± 0.098; D 0.038 ± 0.085; M -0.171 ± 0.059; P -0.178 ± 0.057; V -0.157 ± 0.056; A -0.069 ± 0.051; N -0.141 ± 0.054; G -0.159 ± 0.051; Q -0.152 ± 0.08; R -0.005 ± 0.054; C -0.417 ± 0.063; F -0.399 ± 0.079; L -0.202 ± 0.057; T -0.105 ± 0.068; S -0.173 ± 0.057
T4: Y -0.109 ± 0.15; K -0.408 ± 0.12; G -0.052 ± 0.053; P 0.037 ± 0.11; D 0.304 ± 0.089; M -0.022 ± 0.085; N -0.488 ± 0.18; F -0.062 ± 0.13; S -0.057 ± 0.07; Q -0.096 ± 0.12; L -0.165 ± 0.073; W -0.305 ± 0.057; H -0.145 ± 0.079; R -0.63 ± 0.075; C -0.209 ± 0.09; V -0.179 ± 0.07
R3: G 0.194 ± 0.062; P -0.004 ± 0.11; A 0.119 ± 0.053; V 0.132 ± 0.067; L -0.008 ± 0.072; D 0.68 ± 0.12; Q 0.424 ± 0.11; M 0.182 ± 0.072; F -0.02 ± 0.14; N 0.829 ± 0.18; S 0.301 ± 0.073; I 0.319 ± 0.12; W -0.156 ± 0.056; K 0.288 ± 0.11; E 0.207 ± 0.1; T 0.359 ± 0.089
L2: T 0.105 ± 0.12; K 0.24 ± 0.1; W -0.421 ± 0.12; S 0.161 ± 0.068; V -0.023 ± 0.061; Q -0.603 ± 0.2; F 0.066 ± 0.063; A -0.059 ± 0.065; G -0.132 ± 0.079; E 0.429 ± 0.079; C -0.296 ± 0.083; M 0.024 ± 0.11; H -0.357 ± 0.22; N 0.309 ± 0.09; D 0.31 ± 0.13; I -0.115 ± 0.14; R -0.176 ± 0.076
L14: C -1.16 ± 0.25; A -0.765 ± 0.093; P -0.658 ± 0.1; K -1.05 ± 0.17; F -0.718 ± 0.14; M -0.225 ± 0.088; D -0.754 ± 0.26; N 0.341 ± 0.39; G -0.773 ± 0.082; T -1 ± 0.18; R -0.849 ± 0.096; W -1.16 ± 0.17; E -0.924 ± 0.083; H -0.846 ± 0.18; V -0.945 ± 0.083; Y -0.867 ± 0.17; Q -0.959 ± 0.17; S -0.998 ± 0.17
R1: N 0.002 ± 0.29; C 0.24 ± 0.25; T -0.054 ± 0.27; S 0.311 ± 0.17; A 0.743 ± 0.28
I13: W -0.246 ± 0.067; P -0.68 ± 0.06; R -0.003 ± 0.052; Y -0.017 ± 0.1; C -0.389 ± 0.14; G -0.235 ± 0.081; N -0.161 ± 0.24; V -0.072 ± 0.064; K 0.173 ± 0.08; H -0.588 ± 0.31; E -0.06 ± 0.07; L -0.097 ± 0.083; D -0.535 ± 0.23; T -0.139 ± 0.065; A 0.003 ± 0.08; Q 0.167 ± 0.095; F -0.084 ± 0.14; M -0.088 ± 0.12; S -0.041 ± 0.091
E12: M -0.075 ± 0.087; N -0.075 ± 0.25; T 0.164 ± 0.1; S 0.048 ± 0.053; I 0.294 ± 0.13; K 0.238 ± 0.12; A 0.01 ± 0.059; R 0.007 ± 0.047; W -0.496 ± 0.077; P -0.659 ± 0.077; Q 0.033 ± 0.085; D -0.05 ± 0.097; C -0.224 ± 0.11; Y -0.435 ± 0.18; G -0.039 ± 0.058; L -0.002 ± 0.07; F 0.083 ± 0.12; V -0.062 ± 0.062; H -0.307 ± 0.31

Variants of: B2
Test: as above
Settings: Homo sapiens

Abundance fitness, by site and new letter:
K57: R -0.079 ± 0.049; V -0.085 ± 0.042; T -0.059 ± 0.054; Q -0.16 ± 0.1; W -0.146 ± 0.059; Y -0.162 ± 0.12; S -0.005 ± 0.05
S60: L -0.062 ± 0.05; R -0.059 ± 0.037; Q -0.036 ± 0.065; W -0.049 ± 0.077; H -0.317 ± 0.18; M -0.113 ± 0.049; E 0 ± 0.05; C -0.028 ± 0.077; I -0.057 ± 0.11; N -0.06 ± 0.11; T -0.037 ± 0.066; A -0.028 ± 0.046; P -0.006 ± 0.056; V -0.038 ± 0.059; F 0.031 ± 0.069; G 0.027 ± 0.04
E61: V -0.069 ± 0.045; G -0.071 ± 0.046; D -0.069 ± 0.11; A -0.059 ± 0.064; T 0.003 ± 0.077; M 0.023 ± 0.11; K -0.093 ± 0.097; S -0.045 ± 0.052; Y -0.191 ± 0.2; W -0.135 ± 0.071; C -0.073 ± 0.13; R -0.236 ± 0.13; F -0.129 ± 0.12
Q59: H -0.117 ± 0.14; K 0.03 ± 0.071; D 0 ± 0.091; E 0.009 ± 0.064; I -0.008 ± 0.065; L -0.054 ± 0.038; A -0.062 ± 0.052; R -0.027 ± 0.038; C -0.076 ± 0.098; M 0.011 ± 0.054; W -0.194 ± 0.065; F -0.193 ± 0.1; T -0.029 ± 0.05; V -0.034 ± 0.051; N 0.028 ± 0.15; Y -0.262 ± 0.1; P -0.056 ± 0.075; G -0.063 ± 0.054
R62: E 0.027 ± 0.19; N -0.224 ± 0.12; G 0.055 ± 0.033; S -0.019 ± 0.066; I -0.055 ± 0.16; D 0.073 ± 0.15; P -0.232 ± 0.081; K 0.042 ± 0.1; L -0.094 ± 0.069; Y 0.016 ± 0.12; T -0.051 ± 0.09; W 0.014 ± 0.11; A 0.079 ± 0.18; F -0.317 ± 0.34; Q 0.004 ± 0.1; M -0.019 ± 0.1
A58: L -0.025 ± 0.039; S -0.051 ± 0.048; F -0.03 ± 0.065; R -0.041 ± 0.045; N 0.013 ± 0.059; G 0.001 ± 0.056; H 0.029 ± 0.098; Y -0.173 ± 0.13; P -0.084 ± 0.061; E -0.069 ± 0.068; V -0.017 ± 0.053; I 0.022 ± 0.12; K -0.042 ± 0.05; D 0.006 ± 0.1; Q -0.002 ± 0.065; W -0.097 ± 0.067; C -0.067 ± 0.072
